Laboratory results taken from patent US20220125947A1 (published 2022).

The binders below were run against T1, γδ T cell receptor on human γδ T cells (human) (assay: flow cytometry, dose-response (DRC) binding at 37°C on human γδ T cells).
T1 construct: also called AG000003021 (γδ T cells)
Description: (§1) Binding of antibodies to human γδ T cells or SKW cell lines expressing Vγ9/Vδ2, Vγ9/Vδ2 or Vγ5/Vδ2 was carried out by flow cytometry. Briefly, the cells were centrifuged at 300×g for 5 minutes and the pellet was resuspended in 34 ml fresh media (in RPMI+10% FBS). 50 μL of the cells were then plated (44K cells/well) into assay plates. Samples were incubated for one hour at 37° C. in tissue culture (TC) incubator followed by wash steps by adding 100 μl FACS staining buffer. Secondary detention antibodies (A647 conjugated anti-human IgG Fc specific antibody (2 μg/mL) along with AF488 anti mouse CD3, clone OKT3 at 1 ug/mL) were added at 50 μL/well to appropriate wells according to the plate map. After incubating for 60 minutes at 37° C. in the TC incubator, cells were again washed as described above. This is followed by resuspension in 20 μL/well running buffer containing 1:1000 dilution of Sytox blue dead cell stain and the plates were run on iQue Screener.
(§2) Gating and data analysis: Human anti-human Vγ9 antibody (VG9B2 mAb at 10 nM) was used to mark the gating of positive population. All cells were first gated for singlets on SCS-A vs. SCS-H dot plot, live/dead followed by CD3 positive population, and this subset of CD3 positive population was gated for Vγ9 positive binding using positive control mAb. Cells were also assessed for cell binding of control mAbs by RL1 (A647) Geomeans from the live cell population. Advanced metrics were used and normalization metrics were chosen to calculate fold over background wells containing secondary antibody alone (designated as ‘background’ within ForeCyt settings).

Row | Binder | Max. Activity
1 | VG9B129 (antibody, human IgG1, kappa, V domains shown, also called antibody #59) VH: EVQLVQSGAEVKKPGSSVKVSCKASGGTFSSYVISWVRQAPGQGLEWMGGILPILSTANYAQKFQGRVTITADKSTSTAYMELSSLRSEDTAVYYCARAHDYYYGMDVWGQGTTVTVSS VL: not shown | 271 fold over background
2 | VG9B201 (antibody, human IgG1, lambda, V domains shown, also called antibody #65) VH: QVTLKESGPTLVKPTQTLTLTCTFSGFSLTTHGVGVGWIRQPPRKALEWLALIYWNADKHYSPSLKSRLTITKDTSKNQVVLTMTHMDPVDTATYYCAHEGDWGHYFDFWGQGTLVTVSS VL: QLVLTQPPSVSAAPGQKVTISCSGSSSNIGNNDVSWYQQLPGTAPKLLIYDNNRRPSGIPDRFSGSKSGTSATLGITGLQTGDEADYYCETWDSSLSAIWVFGGGTKVTVLG | 3170 fold over background
3 | VG9B169 (antibody, human IgG1, lambda, V domains shown, also called antibody #63) VH: EVQLLESGPGLVKPSETLSLTCSVSGGSITNYFWNWIRQPPGKGLEWIGYIFYSGSTSYNPSLKSRVTISVDTSKNRFSLKLISVTAADTAVYYCARVGRWELRTAFDIWGQGTMVTVSS VL: not shown | 3250 fold over background
4 | VG9B194 (antibody, human IgG1, lambda, V domains shown, also called antibody #75) VH: EVQLLESGAEVKKPGASVKVSCKASGYTFTGDYMHWVRQAPGQGLEWMGWINPNSGYTNNAEKFQGRVTMTRDTSISTAYMELSRLSSDDTAVYYCTRELDALDVWGQGTMVTVSS VL: QSVLTQPPSASGSPGQSVTISCTGTSSDVGGYNYVSWYQQHPGKAPKLMIYEVSKRPSGVPDRFSGSKSGNTASLTVSGLQAEDEADYYCNSYAGSNNFEVFGGGTKVTVLG | 2470 fold over background
5 | VG9B156 (antibody, human IgG1, lambda, V domains shown, also called antibody #69) VH: QVQLQESGPGLMKPSETLSLTCTVSNGSISGYFWNWIRQPPGKGLEWIGYIFYSGSTNYNPSLKSRVTISVDTSKNLVSLKLNSVTAADTAVYFCAKLGKWELRTAFDIWGQGTMVTVSS VL: not shown | 2700 fold over background
6 | VG9B205 (antibody, human IgG1, lambda, V domains shown, also called antibody #70) VH: QVQLVQSGPGLMKPSETLSLTCTVSNGSISGYFWNWIRQPPGKGLEWIGYIFYSGSTNYNPSLKSRVTISVDTSKNLVSLKLNSVTAADTAVYFCAKLGKWELRTAFDIWGQGTMVTVSS VL: not shown | 2690 fold over background
7 | VG9B161 (antibody, human IgG1, lambda, V domains shown, also called antibody #66) VH: QVQLQESGPGLVKPSETLSLTCTVSGGSISSYFWSWIRQPPGKGLEWIGYIFYSGSTNYNPSLKSRVTILVDTSKNHFSLKLSSVTAADTAVYYCARVGRWELRGAFDIWGQGTMVTVSS VL: not shown | 2820 fold over background
8 | VG9B154 (antibody, human IgG1, lambda, V domains shown, also called antibody #72) VH: QVQLQESGPGLVKPSETLSLTCTVSGGSISYYFWNWIRQPPGKGLEWIGYIYYSGSTNYNPSLKSRVTISLDTSKNQFSLKLSSVTAADTAVYYCAREGKWELRTTFDIWGQGTMVTVSS VL: not shown | 2590 fold over background
9 | VG9B173 (antibody, human IgG1, lambda, V domains shown, also called antibody #77) VH: QVQLQESGPGLVKPSETLSLTCTVSGGSINNYFWSWIRQPPGKGLEWIGYIYYSGSTNYNPSLKSRVTISVVTSMNQFSLKLSSVTAADTAVYYCAREGKWELRSAFDIWGQGTMVTVSS VL: not shown | 2360 fold over background
10 | VG9B182 (antibody, human IgG1, lambda, V domains shown, also called antibody #76) VH: QVQLVESGPGLVKPSETLSLTCTVSGDSINNHFWSWIRQPPGKGLEWIGFVFYNGNTNYNPSLKSRVTISIDTSKSQFSLKLTSVTAADTAVYYCARVGRWVLRTAFDIWGQGTMVTVSS VL: not shown | 2370 fold over background
11 | VG9B86 (antibody, human IgG1, kappa, V domains shown, also called antibody #71) VH: QVQLQESGPGLVKPSETLSLTCTVSGDSISSSYWSWIRQPAGKGLECIGRFYSSGSTSYNPSLKSRVTMAIDTSKNQFSLKLTSVTAADTAVYYCARYSGSYWYFDLWGRGTTVTVSS VL: EIVLTQSPATLSLSPGERATLSCRASQSVSSYLAWYQQRPGQAPRLLIYDTSNRATGIPARFSGSGSGTDFTLTISSLAPEDFAVYYCQQRSDWLLTFGGGTKVEIKR | 2670 fold over background
12 | VG9B111 (antibody, human IgG1, kappa, V domains shown, also called antibody #62) VH: QVQLLESGGGLVKPGGSLRLSCAASGFTFSTYSVNWVRQAPGKGLEWVSSISSDSSYIFYADSMKGRFTISRDNAKNSLYLHMNSLRAEDTAVYYCARDSVTGPFDYWGQGTLVTVSS VL: DIVMTQSPSSLSASVGDRVTITCQASQDISHYLNWYQQKPGKAPKLLIYDSYILETGVTSRFSGSGSGTDFTFTINSLQPEDIAIYYCQQYDNLPYTFGQGTKVEIKR | 3430 fold over background
13 | VG9B159 (antibody, human IgG1, lambda, V domains shown, also called antibody #73) VH: EVQLVQSGPGLVKPSETLSLTCTVSGGSISSYYWSWIRQPAGKGLEWIGRFYTGGRNNYNPSFKSRVTMSVDTSQNQFSLKLSSVTAADTAVYYCARDMEYYYDRSGYSYWYFDLWGRGTTVTVSS VL: SYELMQPPSVSVAPGQTARITCGGNNIGSKSVHWYQQKPGQAPVLVVYDDSDRPSGIPERFSGSNSGNTATLTISRVEAGDEADYYCQVWDSSSDHVVFGGGTKLTVLG | 2510 fold over background

Other lines, results leading:

Row | Max. Activity | Binder
14 | 4540 fold over background | VG9B396 (antibody, human IgG1, lambda, V domains shown, also called antibody #60) VH: EVQLVESGPGLVQPSETLSLTCTVSGDSIRGYYWNWIRQPAGKGLEWIGRIFTTGNTNYNPSLKSRLTMSLDTSKNQFSLKLNSVTAADTAVYYCAREKWDSSSSALYFDFWGQGTLVTVSS VL: QSVLTQAPSVSGAPGQRVTISCTGSSSNIGADYDVKWYQQLPGTAPKLLIYGNTDRPSGVPDRFSGSKSGTSASLAITGLQAEDEADYYCQSYDSRLTGYVVFGGGTKLTVLG
15 | 2780 fold over background | VG9B382 (antibody, human IgG1, lambda, V domains shown, also called antibody #68) VH: QVQLQESGPGLVKPSETLSLTCTVSGDSISGYYWNYIRQPAGKGLDWIGRIFTTGNTNYNPSLKSRVTMSVDTSKNQFSLKLTSVTAADTAVYYCARERWDSSSSALYFDYWGQGTLVTVSS VL: QSVLTQPPSVSGAPGQRVTISCTGSSSNIGADYDIKWYQQLPGTAPKLLIYGNSNRPSGVPDRFSGSKSGTSVSLAITGLQAEDEADYYCQSYDSSMSGYVVFGGGTKLTVLG
16 | 4270 fold over background | VG9B470 (antibody, human IgG1, kappa, V domains shown, also called antibody #61) VH: QVTLKESGPTLVKPTQTLTLTCTFSGFSLTTSGVGVGWIRQPPGKALEWLALILWNDHTIYSPSLKSRLTITKDTSKNQVVLTMTNMDPVDTAAYFCARDKWELRDAFDIWGQGTMVTVSS VL: EIVMTQSPSFLSASVGDRVTFTCRASQGISRYLAWYQQKPGRAPNLLIYVASTLQSGVPSRFSGSGSGTEFTLTISSLLPEDFATYYCQQLISYPYTFSQGTRLEIKR
17 | 396 fold over background | VG9B411 (antibody, human IgG1, kappa, V domains shown, also called antibody #58) VH: EVQLVESGGGLVKPGGSLRLSCSASGFTFSNYDMNWVRQAPGKGLEWVSSISSSSSYIYYADSVKGRFTISRDNAKNSLYLQMNSLRAEDTAVYHCARDVGVTTDYYYYGMDVWGQGTTVTVSS VL: EIVMTQSPSSVSASVGDRVTITCRASQGINSWLAWYQQDPYKAPKLLIYAASTLQSGVPSRFGGRGSGTEFTLTISSLQPEDFAVYYCQQYNNWPRTFGQGTKVDIKR
18 | 3240 fold over background | VG9B639 (antibody, human IgG1, kappa, V domains shown, also called antibody #64) VH: QVQLVQSGGGLVKPGGSLRLSCAASGFTFTTYRMNWVRQAPGKGLEWVSSISSSSIYIHSADSVKGRFTISRDNAKNSLYLQMNSLRAEDSAIYYCARERVYTVSFDYWGQGTLVTVSS VL: DIQMTQSPSSLSASVGDRVTITCQASQDISHYLNWYQQKPGKAPKLLIYDSYILETGVTSRFSGSGSGTDFTFTINSLQPEDIAIYYCQQYDNLPYTFGQGTKVEIKR
19 | 2780 fold over background | VG9B383 (antibody, human IgG1, lambda, V domains shown, also called antibody #67) VH: QVQLQESGPGLVKPSETLSLTCTVSSGSISSYYWNWIRQPAGKGLEWVGRIYTIGNTNYNPSLKSRVTMSIDTSKNQFSLNLSSVTAADTAVYFCAREGYYDSSGSFFPGAFGIWGQGTMVTVSS VL: SSELTQPASVSGSPGQSITISCTGTSNDVGSYNLVSWYQQHPGKAPKLMIYAGSKRPSGISNRFSGSKSGNTASLTISGLQAEDEADYYCCSFAGATNVVFGGGTKLTVLG
20 | 2500 fold over background | VG9B465 (antibody, human IgG1, lambda, V domains shown, also called antibody #74) VH: QVQLQQSGPGLVKPSETLSLTCTVSGGSITSYYWNWIRQPAGKGLEWIGRIYTIGNTNYNPSLKSRVTMSIDTSKHQFSLKLSSVTGADTAVYYCAREGYYESDGSFFPGAFNIWGQGTMVTVSS VL: SSELTQPASVSGSPGQSITISCTGTSNDVGSYNLVSWYQQHPGKAPKLMIYAGSKRPSGISNRFSGSKSGNTASLTISGLQAEDEADYYCCSYAGTTNVVFGGGTKVTVLG

What follows are binders tested against T2, gamma-delta T cell receptor on human γδ T cells (human) (assay: flow cytometry, dose-response binding at 37 C, human γδ T cells).
T2 construct: also called AG000003021 (γδ T cells)
Description: as §1, §2

Row | Max. Activity | Binder
21 | 2310 fold over background | VG9B208 (antibody, human IgG1, lambda, V domains shown, IgG1, lambda) VH: QVQLQESGPGLVKPSETLSLTCTVSGGSISGYYWSWIRQPPGKGLELIGYIFYSGSINYNPSLKNRVTISLDTSKNQFSLKLTSVTAADTAVYYCARVGKWELRSSFDIWGQGTMVTVSS VL: QSVLTQPPSVSAAPGQKVTISCSGSTSNIGNNDVSWYQQLPGTAPKLLIYDNNKRPSGIPDRFSGSKSGTSATLGITGLQTGDEADYYCGTWDSSLSVWVFGGGTKLTVLG
22 | 2330 fold over background | VG9B87 (antibody, human IgG1, kappa, V domains shown, IgG1, kappa) VH: QVQLVESGAEVKKPGASVKVSCKASGYTFTSEYIHWVRQAPGQGLEWMGIINPSGGSTSYAQRFQGRVTMTRDTSTSTVYMEVNSLRSEDTAVYYCARERGYSYGSFDYWGQGTLVTVSS VL: EIVLTQSPSFLSASAGDRVTITCRASQGISSYLAWYQQKPEKAPKLLIYAASTLQSGVPSRFSGSGSGTEFTLTISSLQPEDFATYYCQQFNSYSLTFGGGTKLEIKR
